Data on four molecules can be found in patent US20250326867A1, “De novo designed chlorophyll special pair proteins” (University of Washington, priority 2024, published 2025).

Assay [1] can be described thus: ZnPPaM binding titration monitored by CD in the Qy region. The note with it: curve fitting. An excerpt:
(§1) At longer wavelengths in the UV/visible/near-infrared (UV/vis/NIR), CD spectra can serve as a convenient probe of excitonic interactions between Chls. […] When Chl dimers are arranged in chiral protein environments, however, excitonic interactions can produce delocalized transitions with chiral character, yielding CD signals that are stronger and conservative (i.e., composed of a bisignate doublet that integrates to zero). […] Curve fitting of the CD titrations yields SP2-ZnPPaM dissociation constants (KDs) of 300 nM for KD1 and 2.5 μM for KD2, and SP3-ZnPPaM KDs of 800 nM for KD1 and 1.0 μM for KD2 (data not shown). Due to the lower CD signal of the SP1-ZnPPaM complex, we instead used absorbance and fluorescence to measure the SP1-ZnPPaM interaction. Absorption titrations yielded curve fits with KD1 and KD2 values of 290 nM and 430 nM for SP1, 110 nM and 2.0 μM for SP2, and 350 nM and 940 nM for SP3, respectively (FIG. 9).
Circular Dichroism (CD) spectroscopy: CD spectra were collected using a J-1500 spectrophotometer. For protein secondary structure assays, spectra were measured on samples of 0.2-0.4 mg/mL protein in 1 mm quartz cuvettes from 260 to 190 nm with a 1 nm bandwidth, 1 nm data interval, data integration time (DIT) of 1 second, and scanning speed of 50 nm/min. Thermal melts were monitored at 222 nm from 2 to 98° C. with a 2 nm bandwidth and 8 second DIT. UV/vis/near-infrared (NIR) CD transitions of protein-bound Chls were examined in the 800-300 nm region in 1 cm quartz cuvettes as averages of 10 scans using a 3 nm bandwidth, 1 nm data interval, DIT of 4 seconds, and scanning speed of 50 nm/min unless otherwise noted. UV/vis/NIR CD spectra shown in FIG. 2 were collected after sterile filtering with 0.22 μm filter and PD-10 desalting column purification (Sephadex™ G-25 M resin, Cytiva Life Sciences). Each spectrum represents the average of two independent sample preparations. Samples contained 8-15 μM protein (monomer concentration) with equimolar ZnPPaM, 150 mM NaCl, and 10 mM Tris buffer at pH 8. ZnPPaM dry powder was dissolved in methanol stock solutions immediately before adding to protein solutions. Samples were allowed to incubate for 8-16 hours at room temperature prior to measuring spectra.

Assay [2] is described as follows: ZnPPaM binding titration monitored by UV/vis absorbance. The settings on record: absorption titration. How it is done: FIG. 9. SP2-ZnPPaM binding titration monitored by UV/vis absorbance. (a) UV/vis titration of ZnPPaM into a solution of 20 μM SP2 dimer ([…] of SP2 monomer) in 150 mM NaCl, and 10 mM Tris at pH 8. Samples were prepared separately with 0.25 to 4 equivalents (eq.) of ZnPPaM per SP2 protein dimer (2.0 eq. ZnPPaM would be a stoichiometric amount). The y-axis is the molar extinction coefficient, &, or OD divided by ZnPPaM concentration. ZnPPaM was added to protein samples from a DMSO stock solution. Samples were incubated overnight for 20 hours at 4° C. before measurement at room temperature. (b) The same data as in panel (a) zoomed in on the Qy region. Arrows indicate the direction & changes as a function of increasing ZnPPaM concentration. (c) Fitted spectra and (d) species concentration vs. molar ratio of ligand to protein from fitting of the absorbance spectra in panels (a) and (b). During fitting, only the P+L→PL and PL+L→PL2 reactions were considered, and ZnPPaM aggregation was disregarded. (P represents SP2 dimer protein and L represents ZnPPaM ligand). Curve fitting gives dissociation constants (KDs) of 110 nM and 2.0 μM for KD1 and KD2, respectively. Fittings were performed with an algorithm that combines singular value decomposition and least squares regression, as implemented in ReactLab™ Equilibria. (e) Full spectra and (f) the Qy region of a second titration with SP2 dimer protein concentration held at 2.0 μM. At 2.0 μM protein, the intensities of the spectral features at 669 and 692 nm depend upon the molar ratio of protein to ZnPPaM in a manner similar to the 20 μM protein titration shown in panels (a) and (b).
as §1
Protein-chlorophyll sample preparation: Zn pheophorbide a methyl ester (ZnPPaM) was purchased from Frontier Scientific, Inc. ZnPPaM stock solutions were prepared in dimethyl sulfoxide (DMSO) or methanol to concentrations between 200 μM and 1 mM. ZnPPaM concentrations were determined using mass measurements and by using the known absorptivity of Zn pheophytin a, which has a similar absorbance spectrum and an extinction coefficient €659 nm of 77,300 M^−1 cm^−1 in 80% acetone/20% deionized water (Jones et al. 1976). Ultraviolet/visible (UV/vis) absorbance spectra were collected using a V-750 spectrophotometer with a 1 nm bandwidth and 400 nm/min scanning speed. Protein-ZnPPaM complexes were prepared by slowly adding freshly-prepared ZnPPaM stock solution to protein solution in aqueous buffer at room temperature and incubating samples for several hours. Unbound ZnPPaM was removed by centrifugation to pellet precipitated ZnPPaM, sterile filtration using a 0.22 μm syringe filter, and/or running a PD-10 desalting column purification (Sephadex™ G-25 M resin, Cytiva Life Sciences).

Assay [3] can be described thus: ZnPPaM fluorescence titration, 1:1 binding model. The note with it: 1:1 binding model of protein monomer to ZnPPaM, approximates average of KD1 and KD2, read-out: KD estimate.
Description: as §1

In the next assay the target is T1, O32-15B.
T1 construct: Homotrimeric component of the O32-15 octahedral nanocage (8 trimers per cage); also called C3 trimer; trimeric component
T1 chain: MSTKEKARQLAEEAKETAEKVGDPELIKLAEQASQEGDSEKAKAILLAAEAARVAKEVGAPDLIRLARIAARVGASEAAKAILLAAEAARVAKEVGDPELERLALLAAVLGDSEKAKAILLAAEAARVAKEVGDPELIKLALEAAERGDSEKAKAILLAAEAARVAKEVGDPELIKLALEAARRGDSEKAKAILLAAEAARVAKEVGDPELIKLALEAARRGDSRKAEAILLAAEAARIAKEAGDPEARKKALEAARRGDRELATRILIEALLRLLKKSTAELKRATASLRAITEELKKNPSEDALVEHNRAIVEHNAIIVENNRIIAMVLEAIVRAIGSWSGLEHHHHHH
As to the kind of experiment: negative-stain EM of two-component octahedral nanocage. The method, then:
Transmission negative-stain electron microscopy (nsEM) and image processing: SEC purified cage fractions were diluted to about 0.5 μM (monomeric component concentration) for negative-stain EM characterization. Briefly, on a glow-discharged formvar/carbon supported 400-mesh copper grid (Ted Pella, Inc.), 6 μL of protein sample were drop-casted for 2 mins. The grid was blotted and stained with 3 μL of 2% uranyl formate, blotted again, and stained with 3 μL of uranyl formate for 20 s before final blotting. Micrographs of stained samples were taken on a 120 kV Talos™ L120C transmission electron microscope. All nsEM datasets were collected using the EPU software and processed by CryoSparc™ (Punjani et al. 2017) with contrast transfer function (CTF) correction. All the particle picks were 2D classified for 20 iterations into 50 classes. Particles from selected classes were used for building the ab-initio initial model. The initial model was homogeneously refined using C₁ and the corresponding O symmetry.

The next assay concerns the target T2, CpcA-PEB (Synechocystis sp., UniProt Q54715).
T2 construct: made in house; host or cells: E. coli
As to the kind of experiment: Excitation energy transfer in 2D surface arrays by FLIM / time-resolved single photon counting. The note with it: 485 nm laser. An excerpt:
Native special pairs play a critical role as energy transfer acceptors for antenna proteins. To test whether our designed SP proteins participate in energy transfer with natural light-harvesting proteins, we analyzed excitation energy transfer in 2D surface arrays using Fluorescence Lifetime Imaging Microscopy (FLIM) in combination with nanoimprint lithography (Huang, Vasilev, and Hunter 2020) (FIG. 5). We selected the cyanobacterial antenna protein CpcA with attached phycoerythrobilin (PEB) as the energy transfer donor. CpcA-PEB was purified from E. coli, and gives a strong fluorescence emission maximum at 568 nm and emission extending past 630 nm (Barnett et al. 2017), overlapping with the excitation spectrum of Zn pheophorbide a (ZnPPa) when bound to SP2. […]
To quantify the strength of the interaction between CpcA-PEB and SP2-ZnPPa, we used time-resolved single photon counting. The surface was illuminated with a 485 nm picosecond laser filtered at 620 nm (donor emission), and photons were counted for individual pixels (surface resolution approximately 300 nm) over time, allowing both total fluorescence intensity and lifetime to be analyzed (FIG. 5d). In regions with only CpcA-PEB, fluorescence intensity was above 4000 arbitrary units (a.u.) and the lifetime was over 2 ns (τav=2058 ps). […]

Where [4] appears, read: first ZnPPaM binding (data not shown), read-out: dissociation constant KD1.
The mark [5] stands for this setting: second ZnPPaM binding (data not shown), read-out: dissociation constant KD2.
The mark [6] stands for this setting: P+L→PL, 150 mM NaCl, 10 mM Tris pH 8, read-out: dissociation constant KD1.

T2 sequence (Q54715 whole entry): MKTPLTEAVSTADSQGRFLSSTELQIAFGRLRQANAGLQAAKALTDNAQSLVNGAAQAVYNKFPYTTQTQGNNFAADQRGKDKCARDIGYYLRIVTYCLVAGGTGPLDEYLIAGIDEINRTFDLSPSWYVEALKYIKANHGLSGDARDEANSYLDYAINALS

B1: SP3: de novo designed chlorophyll special pair protein, C2 homodimer (protein)
chain: SGSSEELARESAEAAWRLAQAGTRLMLAWIRGDLKEIAEALIELARAVQELARVAKEYGNDELAKTAALLAAHVAMLAILVLIRAIKEGDDEVRELAKTAIKLASTAAKIVLDALPTAEEVRQITLLAKLAEEAADKKNEDSALAVGIAAAAVLLALLALEAAQKAGIEEAEKGARLLLKLAMDAARKKNPEEALAVFNAALDVSIALKLLQSAKRAGSEETRKLAEEMLRQALERARK
modifications: homodimer; VARIANT 1..4 optionally absent
notes: de novo designed chlorophyll special pair protein, C2 homodimer
Regarding B1, the Kd is 800 nM in assay [1] (setting [4]); 1000 nM in assay [1] (setting [5]); 350 nM in assay [2] (setting [6]); 940 nM in assay [2] (PL+L→PL2, read-out: dissociation constant KD2); 120 nM in assay [3].

B2: O32-15A (designed binder)
chain: MDEEFKFLATEAKMLITAAERLAGTDPRLQEMVALIKKELEQAERTFRNGDKSEAQRQLEFVLTAARAVMNVAAAANAAGTDPLLKAMVDAILWRLKEAIRTFQNGDEEAETQLRFVLRAAIAVAVVAAALVLAGTDPELQEMVEQIKDLLISAFMAGEKALTQLLFVAWAAHAVAMIAAAANLAGPRLQQQVKEILEKLKEAIETFQKGDEEQAFRQLAEVLAEAALVALRAALTNLEHHHHHH
notes: Homodimeric component of the O32-15 octahedral nanocage (12 dimers per cage); also called C2 dimer (based on SP2); chlorophyll dimer component
B2: the binding result with O32-15B is given as “binds”.

B3: SP2: de novo designed chlorophyll special pair protein, C2 homodimer (protein)
chain: SGSGSSDEEFKFLATEAKMLITAAERLAGTDPELQEMVALIKKELEQAERTFRNGDKSEAQRQLEFVLTAARAVMNVAAAANAAGTDPELIEMVLRILKQLKEAIRTFQNGDQEEAETQLRFVLRAAIAVAVVAAALVLAGTDPELQEMVKQILEELKQAIETFARGDKEKALTQLLFVAWAAHAVAMIAAAANLAGTDPRLQQQVKEILEKLKEAIETFQKGDEEQAFRQLAEVLAEAALVALRAALTN
modifications: homodimer; VARIANT 1..6 optionally absent; VARIANT 33 optionally absent; VARIANT 89..100 optionally absent; VARIANT 111..115 optionally absent; VARIANT 151..169 optionally absent; VARIANT 197..199 optionally absent
notes: as for B1
On to B3, for which the Kd in assay [1] (setting [4]) was 300 nM; in assay [1] (setting [5]), 2500 nM; in assay [2] (setting [6]), 110 nM; in assay [2] (PL+L→PL2, 150 mM NaCl, 10 mM Tris pH 8, read-out: dissociation constant KD2) it was 2000 nM; in assay [3], 480 nM.

B4: SP2-ZnPPa: SP2 protein with bound Zn pheophorbide a (ZnPPa), energy transfer acceptor (protein)
chain: B3 chain
Consider B4, for which, in the assay with CpcA-PEB (2D arrays on poly-L-lysine glass, 620 nm filter), the “energy transfer efficiency of CpcA-PEB to SP2-ZnPPa” value is 59%. Moreover, in the assay with CpcA-PEB (regions with both CpcA-PEB and SP2-ZnPPa, 620 nm donor emission (CpcA-PEB only: 2058 ps)), the “donor fluorescence lifetime τav” value came out at 839 ps.
